Assay results taken from article PMC11960969, “Mdga2 deficiency leads to an aberrant activation of BDNF/TrkB signaling that underlies autism-relevant synaptic and behavioral changes in mice” (PLOS Biology, 2025).

System: TrkB (TrkB-Flag)
Assay: Co-IP of MDGA2 and its truncations with TrkB-Flag in HEK293T cells
Type: binding, human
Settings: HEK293T cells co-transfected with TrkB-Flag and GFP-tagged MDGA2 constructs
Description: Fig 3 MDGA2 interacts with TrkB and suppresses TrkB activity. (A) Primary hippocampal neurons derived from Mdga2^ +/− (Het) mice and their wild-type (WT) littermates at DIV 7 were treated with different doses of BDNF for 30 min. Equal amounts of protein lysates were subjected to immunoprecipitation (IP) with an anti-TrkB antibody, followed by immunoblotting with an anti-phosphotyrosine (pTyr) antibody or the anti-TrkB antibody. The pTyr levels were quantified by densitometry, normalized to total TrkB levels, and then compared to those of WT controls. n = 3 per group. (B) WT mouse brain lysates were subjected to IP with an anti-MDGA2 antibody and a control IgG, and immunoblotted (IB) for the components indicated. mBDNF, mature BDNF; ImBDNF, immature BDNF. (C) Hippocampal neurons from WT mice at DIV 7 were immunostained with antibodies against MDGA2 (red) and TrkB (green), and then counter-stained with DAPI (blue). Images were acquired by a confocal microscope. Scale bar: 10 μm. (D) Surface plasmon resonance (SPR) analysis of the binding between recombinant MDGA2 protein and recombinant TrkB protein. TrkB was immobilized on a Biacore CM5 chip and tested for its binding with MDGA2 at the concentrations indicated. (E) Computer simulation of the binding mode of TrkB and MDGA2. The predicted binding domain of TrkB (the d5 domain) is highlighted by a red square and labeled in brown. The predicted binding domain of MDGA2 (the MAM domain) is highlighted by a red square and labeled in yellow. […] Immunoprecipitated TrkB levels were quantified by densitometry, normalized to input levels, and compared to respective controls (set to one arbitrary units). n = 3 per group. […] Levels of phosphorylated proteins were quantified by densitometry, normalized to respective total protein levels and compared to controls (set to one arbitrary units). n = 6 per group. […] P-values were determined by two-tailed unpaired Student t-test in (A) and one-way ANOVA with Tukey’s multiple comparisons test in (H, I, J). *p < 0.05, **p < 0.01, ***p < 0.001, ns: not significant. […]

B1: MDGA2-ΔMAM: truncated form of MDGA2 lacking its MAM domain (protein)
chain: PPTVRIVHSGLACNIEEERYSERVYTIREGETLELTCLVTGHPRPQIRWTKTAGSASDRFQDSSVFNETLRITNIQRHQGGRYYCKAENGLGSPAIKSIRVDVYYLDDPVVTVHQSIGEAKEQFYYERTVFLRCVANSNPPVRYSWRRGQEVLLQGSDKGVEIYEPFFTQGETKILKLKNLRPQDYANYSCIASVRNVCNIPDKMVSFRLSNKTASPSIKLLVDDPIVVNPGEAITLVCVTTGGEPAPSLTWVRSFGTLPEKTVLNGGTLTIPAITSDDAGTYSCIANNNVGNPAKKSTNIIVRALKKGRFWITPDPYHKDDNIQIGREVKISCQVEAVPSEELTFSWFKNGRPLRSSERMVITQTDPDVSPGTTNLDIIDLKFTDFGTYTCVASLKGGGISDISIDVNISSSTVPPNLTVPQEKSPLVTREGDTIELQCQVTGKPKPIILWSRADKEVAMPDGSMQMESYDGTLRIVNVSREMSGMYRCQTSQYNGFNVKPREALVQLIVQYPPAVEPAFLEIRQGQDRSVTMSCRVLRAYPIRVLTYEWRLGNKLLRTGQFDSQEYTEYAVKSLSNENYGVYNCSIINEAGAGRCSFLVTGKAYAPEFYYDTYNPVWQNRHRVYSYSLQWTQMNPDAVDRIVAYRLGIRQAGQQRWWEQEIKINGNIQKGELITYNLTELIKPEAYEVRLTPLTKFGEGDSTIRVIKYSAPVNPHLREQDLATKNSVD
modifications: left off: GFP, end not stated, kept
notes: truncated form of MDGA2 lacking its MAM domain
- interaction with TrkB (Co-IP): abolished the MDGA2-TrkB interaction
